Source: publication PMC2172055

Legend:
[1] = molecular target: Sec61β (canine (endogenous in MDCK)) (UniProt P60467); test: FRET or BRET
[2] = molecular target: Sec61α (canine (endogenous in MDCK)) (UniProt P38377); test: FRET or BRET
Chain of Sec61α (canine (endogenous in MDCK)) (P38377 whole entry): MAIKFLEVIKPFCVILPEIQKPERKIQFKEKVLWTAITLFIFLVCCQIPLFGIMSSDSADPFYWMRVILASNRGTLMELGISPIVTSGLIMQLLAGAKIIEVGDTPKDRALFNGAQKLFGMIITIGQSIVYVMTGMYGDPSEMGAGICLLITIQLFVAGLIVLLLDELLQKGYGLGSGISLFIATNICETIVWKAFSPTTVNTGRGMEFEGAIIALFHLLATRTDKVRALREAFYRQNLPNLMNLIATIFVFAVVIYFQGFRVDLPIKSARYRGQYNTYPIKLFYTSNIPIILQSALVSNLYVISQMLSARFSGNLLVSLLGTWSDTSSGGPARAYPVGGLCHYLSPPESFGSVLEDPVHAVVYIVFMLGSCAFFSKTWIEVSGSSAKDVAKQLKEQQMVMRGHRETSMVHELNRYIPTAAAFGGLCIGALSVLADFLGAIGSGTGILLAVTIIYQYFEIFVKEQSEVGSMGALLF

Chain of Sec61α (P38377 whole entry): as above
Chain of Sec61β (canine (endogenous in MDCK)) (P60467 whole entry): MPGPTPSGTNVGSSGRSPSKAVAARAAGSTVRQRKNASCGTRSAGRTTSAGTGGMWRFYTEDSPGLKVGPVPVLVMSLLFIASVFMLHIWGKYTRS
Chain of Sec61β (P60467 whole entry): as above

FRET efficiency (pactamycin-treated cells) [1] [%]	FRET efficiency (puromycin-treated cells) [1] [%]	FRET efficiency (untreated cells) [1] [%]	FRET efficiency (untreated cells, Fig. 3 A, donor to acceptor antibody 1:8) [1] [%]	stoichiometry N [1]	FRET efficiency (pactamycin-treated cells) [2] [%]	FRET efficiency (puromycin-treated cells) [2] [%]	FRET efficiency (untreated cells) [2] [%]	FRET efficiency (untreated cells, Fig. 3 B) [1] [%]	Substance
23.9	24.8	21.4	17	> 2	46.8	46.1	41.8		Sec61β (from UniProt P60467 1-96) (natural protein)
28	27.9	26.4			35.5	33.6	38.3	30	Sec61α (from UniProt P38377 1-476) (natural protein)
